Here are results for 9 molecules from patent publication US20250250357A1 (NANJING ZAIMING PHARMACEUTICAL, published 2025).

Test [1] addresses T1, human MSLN-R3 on HEK293T-hMSLN-R3 recombinant cells (human, UniProt Q13421 487-606).
T1 construct: the C-terminal limit is uncertain; also called human MSLN-R3 membrane protein
The test is described as follows: FACS, HEK293T-hMSLN-R3 cells.

Test [2] addresses T2, monkey MSLN on HEK293T-monkey MSLN recombinant cells (monkey).
T2 construct: Full-length precursor as transfected; processing on the cell is not described; also called HEK293-monkey MSLN
T2 chain: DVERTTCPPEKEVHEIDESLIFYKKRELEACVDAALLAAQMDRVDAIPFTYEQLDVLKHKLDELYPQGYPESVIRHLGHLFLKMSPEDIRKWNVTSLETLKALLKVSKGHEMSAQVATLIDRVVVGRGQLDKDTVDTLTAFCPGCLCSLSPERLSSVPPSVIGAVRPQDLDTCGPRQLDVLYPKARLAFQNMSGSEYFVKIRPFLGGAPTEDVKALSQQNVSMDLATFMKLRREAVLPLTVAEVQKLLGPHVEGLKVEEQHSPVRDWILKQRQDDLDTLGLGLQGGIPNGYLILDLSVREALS
The test is described as follows: FACS, HEK293T-monkey MSLN cells. For orientation: Flow cytometry measures light scatter and fluorescence of single cells or particles in a stream.

Test [3] deals with T3, human MSLN-FL-his protein (human, UniProt Q13421 296-580).
T3 construct: Made in HEK293E cells, purified on nickel column; also called hMSLN-FL-his; human MSLN full-length protein; not shown: His tag
The test is described as follows: ELISA, coated antigen, antibody 2 nM.

The target of test [4] is T3, human MSLN-FL-his protein. Briefly: ELISA, coated antigen, antibody 20 nM. For orientation: An ELISA detects its analyte on a solid surface through an enzyme-linked reagent.
In test [5] the target is T3, human MSLN-FL-his protein. The test is described as follows: ELISA, coated antigen, antibody 0.2 nM.
The target of test [6] is T3, human MSLN-FL-his protein. The test is described as follows: ELISA, coated antigen, antibody 200 nM.
Test [7] deals with T3, human MSLN-FL-his protein. The test is described as follows: ELISA, coated antigen, antibody 0.02 nM.
The target of test [8] is T3, human MSLN-FL-his protein. The test is described as follows: ELISA, coated antigen, antibody 0.002 nM.
Test [9] concerns the target T3, human MSLN-FL-his protein. Briefly: ELISA, coated antigen, antibody 0.0002 nM.
The target of test [10] is T3, human MSLN-FL-his protein. The test is described as follows: ELISA, coated antigen, no antibody (blank).
For test [11], the target named is T4, human MSLN-R3-his protein (human, UniProt Q13421 487-598).
T4 construct: it is put last here; also called human MSLN-R3 protein; hMSLN-R3-his; not shown: His tag
Briefly: ELISA on coated antigen, antibody 2 nM.

Test [12] addresses T4, human MSLN-R3-his protein. Briefly: ELISA on coated antigen, antibody 20 nM.
Test [13] concerns the target T4, human MSLN-R3-his protein. Briefly: ELISA on coated antigen, antibody 0.2 nM.
Test [14] addresses T4, human MSLN-R3-his protein. The test is described as follows: ELISA on coated antigen, antibody 200 nM.
The target in test [15] is T4, human MSLN-R3-his protein. Briefly: ELISA on coated antigen, antibody 0.02 nM.
In test [16] the target is T4, human MSLN-R3-his protein. The test is described as follows: ELISA on coated antigen, antibody 0.002 nM.
Test [17] addresses T4, human MSLN-R3-his protein. Briefly: ELISA on coated antigen, antibody 0.0002 nM.
Test [18] has as its target T4, human MSLN-R3-his protein. Briefly: ELISA on coated antigen, no antibody (blank, column 'none').
Test [19] has as its target T5, human MSLN on OVCAR3 tumor cells (human, UniProt Q13421 296-598).
T5 construct: whole, on cells; also called human MSLN protein
Briefly: FACS, OVCAR3 cells.

Test [20] deals with T1, human MSLN-R3 on HEK293T-hMSLN-R3 …. Briefly: FACS, HEK293T-hMSLN-R3 cells. This is another data set of the same source.
In test [21] the target is T2, monkey MSLN on HEK293T-monkey MSLN …. Briefly: FACS, HEK293T-monkey MSLN cells.
The target in test [22] is T6, human MSLN-hFc recombinant protein (human, UniProt Q13421 296-580).
T6 construct: Captured by an anti-human IgG antibody on the chip; also called human MSLN protein; Acro MSN-H5253
Briefly: SPR (Biacore 8K), MSLN-hFc captured, antibody injected.

Read-outs that look alike come from different tables or passages of the source.

T3 sequence (Q13421 other isoform, or with tags, fused parts or gaps): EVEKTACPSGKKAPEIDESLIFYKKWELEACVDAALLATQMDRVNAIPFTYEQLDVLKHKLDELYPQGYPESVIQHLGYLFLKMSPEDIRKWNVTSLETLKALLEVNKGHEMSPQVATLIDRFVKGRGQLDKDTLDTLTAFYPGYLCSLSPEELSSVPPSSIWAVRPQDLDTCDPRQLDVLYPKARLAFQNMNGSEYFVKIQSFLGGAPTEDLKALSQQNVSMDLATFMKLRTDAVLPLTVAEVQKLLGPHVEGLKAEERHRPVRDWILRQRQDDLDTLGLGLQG
T1 sequence (Q13421 495-614): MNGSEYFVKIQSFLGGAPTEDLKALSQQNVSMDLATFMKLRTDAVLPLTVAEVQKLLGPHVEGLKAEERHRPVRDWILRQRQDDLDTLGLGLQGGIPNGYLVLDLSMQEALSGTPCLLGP
T5 sequence (Q13421 other isoform, or with tags, fused parts or gaps): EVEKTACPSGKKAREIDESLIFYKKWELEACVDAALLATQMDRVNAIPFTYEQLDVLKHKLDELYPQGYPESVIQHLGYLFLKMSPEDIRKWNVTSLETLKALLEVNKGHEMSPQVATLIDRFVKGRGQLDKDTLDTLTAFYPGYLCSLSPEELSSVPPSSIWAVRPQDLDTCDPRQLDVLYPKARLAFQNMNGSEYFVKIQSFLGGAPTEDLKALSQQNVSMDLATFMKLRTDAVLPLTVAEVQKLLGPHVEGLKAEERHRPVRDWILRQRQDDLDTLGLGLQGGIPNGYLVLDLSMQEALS
T4 sequence (Q13421 495-606): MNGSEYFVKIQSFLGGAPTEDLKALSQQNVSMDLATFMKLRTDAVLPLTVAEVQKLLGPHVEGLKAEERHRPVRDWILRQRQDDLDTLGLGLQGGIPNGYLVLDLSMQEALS
T6 sequence (Q13421 other isoform, or with tags, fused parts or gaps): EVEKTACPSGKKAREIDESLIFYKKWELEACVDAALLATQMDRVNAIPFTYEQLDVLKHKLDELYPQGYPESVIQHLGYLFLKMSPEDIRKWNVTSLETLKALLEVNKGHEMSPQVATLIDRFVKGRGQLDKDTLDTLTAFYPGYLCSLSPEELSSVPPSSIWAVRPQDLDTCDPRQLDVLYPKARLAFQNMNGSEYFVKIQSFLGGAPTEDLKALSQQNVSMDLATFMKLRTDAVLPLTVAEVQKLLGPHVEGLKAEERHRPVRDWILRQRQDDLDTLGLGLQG

B1: F3.80.22-H2 (scFv, not shown: small tags and cut ends)
scFv: DIVMTQTPLSLPVTPGEPASISCRSSQSLEHNNGNTYLHWFLQKPGQSPQLLIYKVSNRFSGVPDRFSGSGSGTDFTLKISRVEAEDVGVYYCSQSTHVPFTFGQGTKLEIKGGGGSGGGGSGGGGSEVQLVQSGAEVKKPGATVKISCKASGYTFTDYEIHWVQQAPGKGLEWMGAFDPEIGGSAYNQKFKDRVTITADKSTSTAYMELSSLRSEDTAVYYCTDYYGSSSGYFDVWGQGTTVTVSS
notes: also called S009-F3.80.22 humanized antibody VL1 + VH2
One may read the EC50 as the midpoint of the concentration-response curve. In the case of B1, in [1], the EC50 was determined as 0.67 nM and the Maximum_MFI was 1790 MFI. In test [2], the Maximum_MFI amounted to 303 MFI and the binding result was “no binding”.

B2: S009-F7.25.19 chimeric antibody (antibody, human IgG1, kappa, V domains shown)
VH: QVQLQQPGTELVKPGASVKLSCKASGYTFTSYWMHWVKQRPGQGLEWIGNIIPSNGGTKYNEKFKSKATLTVDKSSSTAYMQLSSLTSEDSAVYYCSPHYYGGSPGFAYWGQGTLITVSA
VL: DIVMTQSQKFMSTSVGDRVSVICKASQNVGTNVAWYQQKPGQSPKALIYSASYRYSGVPDRFTGSGSGTDFTLTISNVQSEDLAEYFCQQYNSYPLTFGGGTKLEIKR
notes: Human-murine chimeric antibody, human IgG1/kappa constant regions
For B2, the OD450 in [3] is 2.39; in test [4], 2.48; in test [5], 2.4; in [6], 2.32; in [7], 1.9; in test [8], 1.25. Also, the figures for the OD450 in [9] and in test [10] were 0.52 and 0.06, respectively.

B3: S009-F7.21.16 (antibody, human IgG1, kappa, V domains shown)
VH: QVQLQQPGTELVKPGASVKLSCKASGYTFTTFWMHWVKQRPGQGLEWIGGVNPTNGGTNYNEKFRTKATLTVDKSSTTADMQLSSLTSEDSAVYYCAPHYISSRPGFAYWGQGTLVTVSG
VL: DIVMTQSQKFMSTSGGDRVSVTCKASQNVGTNVAWYQQKPGQSPKALIYSASYRYSGVPDRFTGSGSGTDFILTISNVQSEDLAEYFCQQYNSYPLTFGGGTKLEIKR
notes: Human-murine chimeric antibody, human IgG1 heavy and kappa light constant regions
As to B3, the OD450 in test [11] was determined as 2.75 OD; in test [12], 2.52 OD; in test [13], 2.5 OD; in test [14] it was 2.92 OD; in [15], 1.32 OD; in test [16], 0.71 OD. Further, the OD450 in test [17] was 0.31 OD; in test [18], 0.08 OD.

B4: F2.39.3-H2 (scFv, not shown: small tags and cut ends)
scFv: EVQLVQSGAEVKKPGASVKVSCKASGYTFTNYWMHWVRQAPGQGLEWMGNINPSSGDSYYNERFMSRVTMTVDKSTSTVYMELSSLRSEDTAVYYCARSGGLWLAFWGQGTLVTVSSGGGGSGGGGSGGGGSDIVMTQSPDSLAVSLGERATINCKSSQTLLNSVSQNNYLAWYQQKPGQSPTLLIYFASTRESGVPDRFSGSGSGTDFTLTISSLQAEDVAVYYCQQHYRTPYTFGGGTKVEIK
notes: also called S009-F2.39.3 humanized antibody VH1 + VL2
The Kd is the constant that tells how readily two partners part at equilibrium. The koff is the rate constant with which the complex falls apart. What is called kon is a measure of how fast the partners come together. In test [19], B4 came in with an EC50 of 54 nM and a Maximum_MFI of 4220 MFI. Further, in test [20], the EC50 was determined as 6.33 nM and the Maximum_MFI was 5970 MFI. For the same molecule, in [21], the EC50 amounted to 8.74 nM and the Maximum_MFI amounted to 24900 MFI. In [22], the Kd is 0.985 nM, the off-rate constant (koff) worked out at 3.39e-05 s⁻¹ and the on-rate (kon) came to 34400 M⁻¹ s⁻¹.

B5: F2.39.3-H9 (scFv, not shown: small tags and cut ends)
scFv: EVQLVQSGAEVKKPGASVKVSCKASGYTFTNYWMHWVRQAPGQGLEWMGNINPSSGDSYYNERFMSRVTMTVDKSTSTAYMELSSLRSEDTAVYYCARSGGLWLAFWGPGTLVTVSSGGGGSGGGGSGGGGSDIVMTQSPDSLAVSLGERATINCKSSQTLLNSVSQNNYLAWYQQKPGQSPKLLIYFASTRESGVPDRFSGSGSGTDFTLTISSLQAEDVAVYYCQQHYRTPYTFGGGTKVEIK
notes: also called S009-F2.39.3 humanized antibody VH3 + VL1
In test [19], B5 returned an EC50 of 17.2 nM and a Maximum_MFI of 4300 MFI. Further, in [20], the EC50 is 5.66 nM and the Maximum_MFI stood at 5560 MFI. For the same molecule, in [21], the concentration giving a half-maximal response (EC50) came out at 7.73 nM and the Maximum_MFI turned out to be 23300 MFI. In [22], the Kd stood at 0.734 nM, the koff turned out to be 3.19e-05 s⁻¹ and the kon stood at 43500 M⁻¹ s⁻¹.

B6: S009-F7.69.8 (antibody, human IgG1, kappa, V domains shown)
VH: EVHLQQSGPELVKPGASVRIPCKASGYTFTDYNMDWVKQSHGKSLEWIGDINPDNGGTIYTQKFKGKATLTVDKSSSTAYMELRSLTSEDTAVYYCARRLHYYGSSGLDYWGQGTTLTVSS
VL: DIQMTQSPASLSAYVGETVTITCRASGNIHNYLAWYQQKQGKSPQLLVYNAKTLADGVPSRFSGSGSGTQYSLKINSLQPEDFGSYYCQHFWSTVWTFGGGTKLEIKR
notes: as for B3
Consider B6, for which the OD450 was found to be 2.54 OD in test [11]; 2.55 OD in [12]; 1.96 OD in test [13]; 2.56 OD in [14]; 0.38 OD in [15]; 0.11 OD in test [16]. In addition, the OD450 in [17] was 0.06 OD; in test [18], 0.07 OD.

B7: F2.23.12-H5 (scFv, not shown: small tags and cut ends)
scFv: EVQLVQSGAEVKKPGASVKVSCKASGYTFTNYWMHWVRQAPGQGLEWMGNINPSNGGPYYNERFRSRVTMTVDKSTSTAYMELSSLRSEDTAVYYCARPYYGSSYGYFDYWGQGTTVTVSSGGGGSGGGGSGGGGSDIQMTQSPSSLSASVGDRVTITCKASQDINKYIAWYQQKPGKAPKLLIHYTSELQPGVPSRFSGSGSGTDFTFTISSLQPEDIATYYCLQYANPLRTFGGGTKVEIK
notes: also called S009-F2.23.12 humanized antibody VH2 + VL1
In [19], B7 returned an EC50 of 11.3 nM and a Maximum_MFI of 3340 MFI. Besides, in test [20], the EC50 was 4.16 nM and the Maximum_MFI turned out to be 4730 MFI. For the same molecule, in [21], the concentration giving a half-maximal response (EC50) was 5.86 nM and the Maximum_MFI is 17700 MFI. In addition, in test [22], the Kd turned out to be 7.74 nM, the koff stood at 0.000473 s⁻¹ and the kon amounted to 61200 M⁻¹ s⁻¹.

B8: F2.23.12-H16 (scFv, not shown: small tags and cut ends)
scFv: EVQLVQSGAEVKKPGASVKVSCKASGYTFTNYWMHWVRQAPGQGLEWMGNINPSQGGPYYNERFRSRVTMTVDKSTSTAYMELSSLRSEDTAVYYCARPYYGSSYGYFDYWGQGTTVTVSSGGGGSGGGGSGGGGSDIQMTQSPSSLSASVGDRVTITCKASQDINKYIAWYQHKPGKAPKLLIHYTSELQPGVPSRFSGSGSGRDYTFTISSLQPEDIATYYCLQYANPLRTFGGGTKVEIK
notes: also called S009-F2.23.12 humanized antibody VH4 + VL4
As to B8, the EC50 in test [19] stood at 80.4 nM; in test [20] it was 9.39 nM; in test [21], 12.3 nM. Further, the Maximum_MFI stood at 2920 MFI in test [19], 4010 MFI in test [20] and 16100 MFI in [21].

B9: F2.23.12-H13 (scFv, not shown: small tags and cut ends)
scFv: EVQLVQSGAEVKKPGASVKVSCKASGYTFTNYWMHWVRQAPGQGLEWMGNINPSQGGPYYNERFRSRVTMTVDKSTSTAYMELSSLRSEDTAVYYCARPYYGSSYGYFDYWGQGTTVTVSSGGGGSGGGGSGGGGSDIQMTQSPSSLSASVGDRVTITCKASQDINKYIAWYQQKPGKAPKLLIHYTSELQPGVPSRFSGSGSGTDFTFTISSLQPEDIATYYCLQYANPLRTFGGGTKVEIK
notes: also called S009-F2.23.12 humanized antibody VH4 + VL1
Turning to B9, in test [19], a half-maximal effect (EC50) was put at 38.6 nM and the Maximum_MFI was found to be 3110 MFI. In [20], the EC50 was determined as 8.3 nM and the Maximum_MFI was 4710 MFI. Further, in test [21], the EC50 turned out to be 10.9 nM and the Maximum_MFI is 17600 MFI. For the same molecule, in test [22], the Kd came to 31.1 nM, the koff came to 0.000482 s⁻¹ and the kon was 15500 M⁻¹ s⁻¹.
